Data set [1] can be described thus: Phase 1 study of IPH5201 +/- durvalumab in advanced solid tumours: safety. It counts as in vivo. The method, then:
A first-in-human, multicentre, non-randomised, open-label, phase 1 study was conducted in order to assess the safety, efficacy, pharmacokinetics (PK) and pharmacodynamics (PD) of IPH5201±durvalumab (Imfinzi™) in patients with advanced solid tumours. The study consisted of two consecutive dose-escalation parts: • Part 1: Ascending doses of IPH5201 (100, 300, 1000 and 3000 mg) every 3 weeks (Q3W). • Part 2: Ascending doses of IPH5201 (300, 1000 and 3000 mg) and 1500 mg durvalumab Q3W.
PD cohorts enrolled patients with advanced squamous cell lung carcinoma or advanced pancreatic ductal adenocarcinoma in the top two dose levels of Parts 1 and 2. Primary endpoints were safety and tolerability. Key secondary endpoints included preliminary antitumour activity measured by objective response and disease control per RECIST v1.1, PK and immunogenicity. Exploratory endpoints included efficacy measured by duration of response and progression-free survival (PFS) per RECIST v1.1, overall survival and assessment of biomarkers.
Key inclusion criteria were: • Adults aged ≥18 years. • Histologically or cytologically confirmed advanced solid tumours. • At least one measurable lesion per RECIST v1.1. • Refractoriness to standard therapy or disease for which no standard therapy exists. • Eastern Cooperative Oncology Group Performance Status of 0 or 1. • Archival or fresh tumour sample. • Key exclusion criteria were: • Previous treatment with any agents targeting CD73, CD39, or adenosine receptors. • Treatment with any conventional or investigational anticancer therapy within 21 days of the first planned dose. • Active or prior autoimmune or inflammatory disorders within the past 5 years. • Cardiac and vascular criteria including presence of acute coronary syndrome or thromboembolic events within 6 months prior to enrolment, congestive heart failure, serious cardiac arrhythmia requiring medication, or uncontrolled hypertension. • Untreated metastases to the central nervous system.
Overall, 57 patients received treatment (IPH5201, n=38; IPH5201+durvalumab, n=19). […] Treatment-emergent adverse events (TEAEs) occurred in 96.5% of patients; 40.4% had grade ≥3 TEAEs. […] Treatment-related adverse events (TRAEs) occurred in 66.7% of patients (37/57 (64.9%) related to IPH5201; 11/19 (57.9%) related to durvalumab). […] The most common TRAEs were infusion-related reactions (21.1%), fatigue (17.5%), nausea, arthralgia, tumour pain and pruritus (8.8% each). […] Maximum tolerated dose (MTD) was not reached.

Data set [2] concerns the target T1, recombinant human CD39 protein (huCD39) (Homo sapiens, UniProt P49961).
T1 sequence (P49961 38-478 limits assumed): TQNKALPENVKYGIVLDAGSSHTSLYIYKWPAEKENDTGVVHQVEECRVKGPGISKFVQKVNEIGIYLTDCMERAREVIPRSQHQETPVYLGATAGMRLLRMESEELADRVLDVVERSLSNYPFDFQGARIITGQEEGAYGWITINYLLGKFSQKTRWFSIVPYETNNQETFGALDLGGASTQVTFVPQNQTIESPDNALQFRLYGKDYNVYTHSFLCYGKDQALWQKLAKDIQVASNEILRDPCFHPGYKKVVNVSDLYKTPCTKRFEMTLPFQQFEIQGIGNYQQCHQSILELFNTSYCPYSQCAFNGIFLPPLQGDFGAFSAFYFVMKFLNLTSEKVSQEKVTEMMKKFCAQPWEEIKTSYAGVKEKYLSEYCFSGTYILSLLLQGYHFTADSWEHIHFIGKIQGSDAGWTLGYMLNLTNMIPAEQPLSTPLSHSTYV
The data set can be described thus: eATP release by H1703 (CD39-) cells incubated with recombinant huCD39, with or without IPH5201, then docetaxel. It counts as cell-based. The conditions noted are these: H1703 cells + huCD39 400 ng/ml + docetaxel 0.1 μM; IPH5201 10 μg/mL; 40 h; FIG. 3A. The method, then: H1703 (CD39−) cells were incubated with recombinant human CD39 protein (huCD39) (400 ng/ml) to mimic soluble CD39 in tumor microenvironment with or without IPH5201 (humanized anti-CD39 antibody having the respective heavy and light chain amino acid sequences of SEQ ID NOS: 10 and 11) at 10 μg/mL and then treated with docetaxel (0.1 μM). The measure of extracellular ATP (eATP) release was performed 40 h after docetaxel treatment.
OAW42 (CD39+) cells were incubated with 10 or 50 μg/mL of IPH5201 and treated with a dose range of docetaxel. The measure of eATP release was performed 30 h after docetaxel treatment. eATP was measured in the cell culture supernatant with a luminescent-based assay (CellTiter-Glo®) and expressed in Luminescence Arbitrary Unit (AU). Means+/−SD.

B1: IPH5201: humanized anti-CD39 antibody having the respective heavy and light chain amino acid sequences of SEQ ID NOS: 10 and 11 (antibody)
heavy: QVQLVQSGAEVKKPGASVKVSCKASGYTFTDYNMHWVRQAPGQRLEWIGYIVPLNGGSTFNQKFKGRATITVDTSARTAYMELSSLRSEDTAVYYCARGGTRFAYWGQGTLVTVSSASTKGPSVFPLAPSSKSTSGGTAALGCLVKDYFPEPVTVSWNSGALTSGVHTFPAVLQSSGLYSLSSVVTVPSSSLGTQTYICNVNHKPSNTKVDKRVEPKSCDKTHTCPPCPAPEAEGAPSVFLFPPKPKDTLMISRTPEVTCVVVDVSHEDPEVKFNWYVDGVEVHNAKTKPREEQYNSTYRVVSVLTVLHQDWLNGKEYKCKVSNKALPSSIEKTISKAKGQPREPQVYTLPPSREEMTKNQVSLTCLVKGFYPSDIAVEWESNGQPENNYKTTPPVLDSDGSFFLYSKLTVDKSRWQQGNVFSCSVMHEALHNHYTQKSLSLSPGK
light: DIVMTQSPDSLAVSLGERATINCRASESVDNFGVSFMYWFQQKPGQPPKLLIYGASNQGSGVPDRFSGSGSGTDFTLTISSLQAEDVAVYYCQQTKEVPYTFGGGTKVEIKRTVAAPSVFIFPPSDEQLKSGTASVVCLLNNFYPREAKVQWKVDNALQSGNSQESVTEQDSKDSTYSLSSTLTLSKADYEKHKVYACEVTHQGLSSPVTKSFNRGEC
Take B1: in data set [1] (all 57 treated patients), the “deaths due to treatment” value is “no deaths due to treatment”. Also, the “Maximum tolerated dose (MTD)” value in data set [1] (doses up to 3000 mg Q3W) is “not reached”. In addition, in data set [1] (in vivo), the “DLTs during dose escalation” value is “No DLTs were observed”, the “TEAE: anaemia” value amounted to 19.3%, the “TEAE: decreased appetite” value came to 26.3% and the “TEAE: fatigue” value was determined as 28.1%. Moreover, in data set [1] (in vivo), the “TEAE: infusion-related reactions” value is 21.1%, the “TEAE: tumour pain” value stood at 19.3%, the “TRAE: arthralgia” value stood at 8.8% and the “TRAE: fatigue” value is 17.5%. Further, in data set [1] (in vivo), the “TRAE: infusion-related reactions” value is given as 21.1%, the “TRAE: nausea” value turned out to be 8.8%, the “TRAE: pruritus” value was determined as 8.8% and the “TRAE: tumour pain” value came out at 8.8%. Also, in data set [1] (in vivo), the “correlation of dose with incidence of TEAEs of at least grade 3” value was “No significant correlation”; the “grade 4 TRAEs” value is “no grade 4 TRAEs”; the “patients with TRAEs related to IPH5201” value is given as 64.9%; the “patients with TRAEs related to IPH5201, count” value is on record as 37/57. Also, in data set [1] (in vivo), the “patients with grade 3 TRAEs” value was determined as 10.5%, the “patients with grade ≥3 TEAEs” value was found to be 40.4%, the “patients with treatment-emergent adverse events (TEAEs)” value is 96.5% and the “patients with treatment-related adverse events (TRAEs)” value amounted to 66.7%. For the same molecule, in data set [2], the “eATP release reduced by added huCD39” value was “restored”.

The values are drawn from patent publication US20260191954A1, “COMPOSITIONS AND METHODS FOR NEOADJUVANT TREATMENT IN CANCER” (INNATE PHARMA, priority 2022, published 2026).
